Test results taken from patent US20080160018A1 (PDL BIOPHARMA, published 2008).

T1: p75 chain of the human IL-2 receptor on YTJB cells (human, UniProt P14784 27-551)
T1 construct: whole, on cells; also called p75 protein; p75 antigen
T1 sequence (looked up): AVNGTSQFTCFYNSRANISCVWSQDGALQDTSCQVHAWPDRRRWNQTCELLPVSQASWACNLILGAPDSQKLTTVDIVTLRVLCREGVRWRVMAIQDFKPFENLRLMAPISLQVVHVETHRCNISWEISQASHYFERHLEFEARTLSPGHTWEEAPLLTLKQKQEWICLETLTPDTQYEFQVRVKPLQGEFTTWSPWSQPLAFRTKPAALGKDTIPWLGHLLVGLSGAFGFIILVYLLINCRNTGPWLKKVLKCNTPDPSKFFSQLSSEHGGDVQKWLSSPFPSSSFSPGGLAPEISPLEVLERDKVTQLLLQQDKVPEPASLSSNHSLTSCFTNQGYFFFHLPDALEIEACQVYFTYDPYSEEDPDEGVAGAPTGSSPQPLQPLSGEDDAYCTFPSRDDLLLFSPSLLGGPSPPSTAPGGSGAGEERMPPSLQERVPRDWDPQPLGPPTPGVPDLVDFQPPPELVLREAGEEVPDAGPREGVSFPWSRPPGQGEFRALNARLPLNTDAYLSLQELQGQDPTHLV

B1: humanized mik-β1 antibody (antibody, V domains shown)
VH: EVQLLESGGGLVQPGGSLRLSCAASGFTVTSYGVHWVRQAPGKGLEWVGVIWSGGSTDYNAAFISRFTISRDNSKNTLYLQMNSLQAEDTAIYYCARAGDYNYDGFAYWGQGTLVTVSS
VL: DIQMTQSPSSLSASVGDRVTITCSGSSSVSFMYWYQQKPGKAPKLLIYDTSNLASGVPSRFSGSGSGTDYTFTISSLQPEDIATYYCQQWSTYPLTFGQGTKVEVK
B2: chimeric mik-β1 antibody (antibody, V domains shown)
VH: QVQLKQSGPGLVQPSQSLSITCTVSGFSVTSYGVHWIRQSPGKGLEWLGVIWSGGSTDYNAAFISRLTISKDNSKSQVFFKVNSLQPADTAIYYCARAGDYNYDGFAYWGQGTLVTVSA
VL: QIVLTQSPAIMSASPGEKVTMTCSGSSSVSFMYWYQQRPGSSPRLLIYDTSNLASGVPVRFSGSGSGTSYSLTISRMEAEDAATYYCQQWSTYPLTFGAGTKLELK

Tests used:
[1] = biological target: T1, p75 chain of the human IL-2 receptor on …; assay: competition with radio-iodinated mouse mik-β1 on YTJB cells, Berzofsky calculation
Experimental: After incubation for 2 hr at 0° C. the cells were washed twice with binding buffer without mouse Ig and collected by centrifugation. The radioactivity bound to cells was measured and expressed as the ratio of bound/free cpm.

[2] = biological target: T1, p75 chain of the human IL-2 receptor on …; assay: flow cytometry on YTJB cells
Experimental: Cells were suspended in FACS buffer (PBS+2% BSA+0.1% azide) at approximately 5×10⁶/ml. 100 ul of cell suspension was transferred to a polystyrene tube and incubated with 100 ng of purified antibody on ice for 30 min. The cells were washed with FACS buffer and incubated with goat anti-human Ig antibody on ice for another 30 min. Then the cells were washed and incubated with FITC labeled rabbit anti-goat Ig antibody for 30 min. The cells were washed again and finally resuspended in PBS+1% paraformaldehyde. Cells were analyzed on a FACSmate (Becton Dickinson).

Binder | fold difference of binding affinity against the mouse mik-β1 antibody [1] [fold] | binding result [2]
B1 | ≤ 2 | 
B2 |  | binds
